Experimental data as given in patent US20230041071A1 (NATIONAL INSTITUTE OF BIOLOGICAL SCIENCES BEIJING, published 2023).

T1: hAREG-EGFd-mFc (human; mouse, UniProt P15514 142-184)
T1 construct: Expressed in 293F cells; not shown: Fc fragment of mouse IgG2a
T1 chain: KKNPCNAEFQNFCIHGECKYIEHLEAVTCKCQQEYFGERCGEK

T2: hAREG-98aa (human, UniProt P15514 101-198)
T2 construct: Bought protein
T2 sequence (looked up): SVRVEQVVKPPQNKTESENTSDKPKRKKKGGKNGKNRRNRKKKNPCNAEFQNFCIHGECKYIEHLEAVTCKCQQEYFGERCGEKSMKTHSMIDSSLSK


Legend:
[1] = biological target: T1, hAREG-EGFd-mFc; experiment: SPR, Biacore T200; mAb captured on anti-human Fc chip, antigen in solution
Method: (§1) To evaluate affinities of different mouse hybridoma mAbs or their humanized and engineered variants, SPR measurement was performed using Biacore T200 instrument. mAbs were captured on anti-human Fc CM5 biosensor chip surface, hAREG-EGFd-mFc, mAREG-EGFd-mFc or hAREG-98aa (purchased from PeproTech, cat #100-55B) in serial dilutions were injected over antibody-bound surface, followed by a dissociation phase. Association rates (Ka) and dissociation rates (Kd) were calculated using the one-to-one Langmuir binding model (BIA Evaluation Software, GE Life Sciences). The equilibrium dissociation constant (KD) was calculated as the ratio kd/ka.

[2] = biological target: T2, hAREG-98aa; experiment: as above
Method: as §1

Kd [1] [pM] | koff [1] [s⁻¹] | kon [1] [M⁻¹ s⁻¹] | Kd [2] [pM] | kon [2] [M⁻¹ s⁻¹] | koff [2] [s⁻¹] | Binder
750 | 0.000313 | 418000 |  |  |  | ch23H8 (antibody, V domains shown, also called chimeric 23H8) VH: EVQLQESGGGLVKPGGSLKLSCAASGFTFNSYAMSWVRQTPEKRLEWVATISTGGSHTYYPDSVKGRFTISRDNAKNTLYLQMSSLRSEDTAMYYCARHGYLLYDGYYEWYFDVWGAGTTVTVSS VL: DIVLTQSPASLAVSLGQRATISCKASQSVDYDGHSFLNWYQQKPGQPPKLLIYAASNLESGLPARFSGSGSGTDFTLNIHPVEEEDAATYYCQQSTEDPPYTFGGGTKLEIK
205 | 0.000214 | 1.05e+06 |  |  |  | hu23H8v1 (antibody, V domains shown, Humanized 23H8; captured by anti-human Fc in SPR) VH: EVQLVESGGGLVKPGGSLRLSCAASGFTFNSYAMSWVRQAPGKGLEWVSTISTGGSHTYYPDSVKGRFTISRDNAKNSLYLQMNSLRAEDTAVYYCARHGYLLYDGYYEWYFDYWGQGTLVTVSS VL: DIVLTQSPASLAVSPGQRATITCRASESVDYDGHSFINWYQQKPGQPPKLLIYAASNKDTGVPARFSGSGSGTDFTLTINPVEAEDTANYYCQQSTEDPPYTFGQGTKLEIK
178 | 0.000213 | 1.2e+06 |  |  |  | hu23H8v3 (antibody, V domains shown, Humanized 23H8; captured by anti-human Fc in SPR) VH: EVQLVESGGGLVKPGGSLRLSCAASGFTFNSYAMSWVRQAPGKGLEWVSTISTGGSHTYYPDSVKGRFTISRDNAKNSLYLQMNSLRAEDTAVYYCARHGYLLYDGYYEWYFDYWGQGTLVTVSS VL: DIVMTQSPDSLAVSLGERATINCKSSQSVDYDGHSFLNWYQQKPGQPPKLLIYAASNRESGVPDRFSGSGSGTDFTLTISSLQAEDVAVYYCQQSTEDPPYTFGQGTKLEIK
244 | 0.000249 | 1.02e+06 |  |  |  | hu23H8v2 (antibody, V domains shown, Humanized 23H8; captured by anti-human Fc in SPR) VH: EVQLVESGGGLVKPGGSLRLSCAASGFTFNSYAMSWVRQAPGKGLEWVSTISTGGSHTYYPDSVKGRFTISRDNAKNSLYLQMNSLRAEDTAVYYCARHGYLLYDGYYEWYFDYWGQGTLVTVSS VL: DIQMTQSPSSLSASVGDRVTITCRASQSVDYDGHSFLNWYQQKPGKAPKLLIYAASNLQSGVPSRFSGSGSGTDFTLTISSLQPEDFATYYCQQSTEDPPYTFGQGTKLEIK
309 | 0.000246 | 803000 | 537 | 1.11e+06 |  | hu23H8v6 (antibody, V domains shown, Humanized 23H8 variant) VH: EVQLVESGGGLVKPGGSLRLSCAASGFTFSSYAMSWVRQAPGKGLEWVSTISTGGSHTYYPESVKGRFTISRDNAKNSLYLQMNSLRAEDTAVYYCARHGYLLYEGYYEWYFDYWGQGTLVTVSS VL: DIVMTQSPDSLAVSLGERATINCKSSQSVDYEGHSFLNWYQQKPGQPPKLLIYAASNRESGVPDRFSGSGSGTDFTLTISSLQAEDVAVYYCQQSTENPPYTFGQGTKLEIK
336 | 0.000276 | 821000 |  |  |  | hu23H8v4 (antibody, V domains shown, Humanized 23H8 variant; captured by anti-human Fc in SPR) VH: EVQLVESGGGLVKPGGSLRLSCAASGFTFSSYAMSWVRQAPGKGLEWVSTISTGGSHTYYPESVKGRFTISRDNAKNSLYLQMNSLRAEDTAVYYCARHGYLLYEGYYEWYFDYWGQGTLVTVSS VL: DIVLTQSPASLAVSPGQRATITCRASESVDYDGHSFINWYQQKPGQPPKLLIYAASNKDTGVPARFSGSGSGTDFTLTINPVEAEDTANYYCQQSTEDPPYTFGQGTKLEIK
565 | 0.000348 | 628000 |  |  |  | hu23H8v5 (antibody, V domains shown, Humanized 23H8 variant) VH: EVQLVESGGGLVKPGGSLRLSCAASGFTFSSYAMSWVRQAPGKGLEWVSTISTGGSHTYYPESVKGRFTISRDNAKNSLYLQMNSLRAEDTAVYYCARHGYLLYEGYYEWYFDYWGQGTLVTVSS VL: DIQMTQSPSSLSASVGDRVTITCRASQSVDYEGHSFLNWYQQKPGKAPKLLIYAASNLQSGVPSRFSGSGSGTDFTLTISSLQPEDFATYYCQQSTENPPYTFGQGTKLEIK
1310 |  |  |  |  |  | ch1H9 (antibody, V domains shown, also called chimeric 1H9) VH: EVKLMESGGDLVKPGGSLKLSCVASGFTFSGYPMSWVRQTPEKRLEWVATISTGARHTYYPDSVKGRFTISRDNAKNTLYLQMSSLRSEDTAMYYCARHEGLRRGKYHCIMDYWGQGTSVTVSS VL: DILLTQSPASLAVSLGQRATISCKASQSIDYDGDSFLNWYQQKPGQPPKLLIYAASNLESGIPARFSGSGSGTDFTLNIHPVEEEDAATYYCHQCNEDPYMFGGGTKLEIR
1000 | 0.000572 | 570000 |  |  |  | hu9C12v1 (antibody, V domains shown, Humanized 9C12; captured by anti-human Fc in SPR) VH: EVQLVESGGGLVKPGGSLRLSCAASGFTFSSYPMSWVRQAPGKGLEWVSTISTGGTYTYYPDSVKGRFTISRDNAKNSLYLQMNSLRAEDTAVYYCARQGPIYYGNYYYAMDYWGQGTTVTVSS VL: DIVMTQSPLSLPVTLGQPASISCRSSQSLVHSDGNTYLHWYQQRPGQSPKLLIYKVSNRFSGVPDRFSGSGSGTDFTLKISRVEAEDVGVYYCSQSTHVPYTFGGGTKVEIK
1710 | 0.001 | 587000 |  |  |  | ch9C12 (antibody, V domains shown, also called chimeric 9C12) VH: EVKLVESGGGLVKPGGSLKLSCAASGFTFSSYPMSWVRQTPEKRLEWVATISTGGTYTYYPDSVKGRFTISRDNAKNTLYLQMSSLRSEDTAMYYCARQGPIYYGNYYYAMDYWGQGTSVTVSS VL: DIVMTQPPLSLPVSLGDQASISCRSSQSLVHSDGNTYLHWYLQRPGQSPKLLIYKVSNRFSGVPDRFSGSGSGTDFTLKISRVEAEDLGVYFCSQSTHVPYTFGGGTKLEIK
852 | 0.000411 | 483000 | 349 | 8.11e+06 | 0.00283 | hu9C12v5 (antibody, V domains shown, Humanized 9C12 variant; captured by anti-human Fc in SPR) VH: EVQLVESGGGLVKPGGSLRLSCAASGFTFSSYPMSWVRQAPEKGLEWVSTISTGGTYTYYPDSVKGRFTISRDNAKNSLYLQMNSLRAEDTAVYYCARQGPILRKNYYYGMDVWGQGTTVTVSS VL: DVVMTQSPLSLPVTLGDPASISCRSSQSLVDGQDGTYLHWYQQRPGQSPKLLIYKVSNRFDGVPDRFSGSGSGTDFTLKISRVEAEDVGVYYCSQSTHVPYTFGQGTKLEIK
799 | 0.000233 | 291000 |  |  |  | hu1H9v1 (antibody, V domains shown, Humanized 1H9; captured by anti-human Fc in SPR) VH: EVQLVESGGGLVKPGGSLRLSCAASGFTFSGYPMSWVRQAPGKGLEWVSTISTGARHTYYPDSVKGRFTISRDNAKNSLYLQMNSLRAEDTAVYYCARHEGLRRGKYHSIMDYWGQGTLVTVSS VL: DIVLTQSPASLAVSPGQRATITCRASESVDYDGDSFINWYQQKPGQPPKLLIYAASNKDTGVPARFSGSGSGTDFTLTINPVEAEDTANYYCHQSNEDPYMFGQGTKLEIK
758 | 0.000184 | 243000 |  |  |  | hu1H9v4 (antibody, V domains shown, Humanized 1H9; captured by anti-human Fc in SPR) VH: EVQLVESGGGLVKPGGSLRLSCAASGFTFSGYPMSWVRQAPGKGLEWVSTISTGARHTYYPDSVKGRFTISRDNAKNSLYLQMNSLRAEDTAVYYCARHEGLRRGKYHSIMDYWGQGTLVTVSS VL: DIQMTQSPSSLSASVGDRVTITCRASQSIDYDGDSFLNWYQQKPGKAPKLLIYAASNLQSGVPSRFSGSGSGTDFTLTISSLQPEDFATYYCQQSNEDPYVFGQGTKLEIK
811 | 0.000206 | 254000 |  |  |  | hu1H9v5 (antibody, V domains shown, Humanized 1H9; captured by anti-human Fc in SPR) VH: EVQLVESGGGLVKPGGSLRLSCAASGFTFSGYPMSWVRQAPGKGLEWVSTISTGARHTYYPDSVKGRFTISRDNAKNSLYLQMNSLRAEDTAVYYCARHEGLRRGKYHSIMDYWGQGTLVTVSS VL: DIVMTQSPDSLAVSLGERATINCKSSQSIDYDGDSFLNWYQQKPGQPPKLLIYAASNRESGVPDRFSGSGSGTDFTLTISSLQAEDVAVYYCQQSNEDPYVFGQGTKLEIK
762 | 0.000229 | 301000 |  |  |  | hu1H9v2 (antibody, V domains shown, Humanized 1H9; captured by anti-human Fc in SPR) VH: EVQLVESGGGLVKPGGSLRLSCAASGFTFSGYPMSWVRQAPGKGLEWVSTISTGARHTYYPDSVKGRFTISRDNAKNSLYLQMNSLRAEDTAVYYCARHEGLRRGKYHSIMDYWGQGTLVTVSS VL: DIVLTQSPASLAVSPGQRATITCRASESVDYDGDSFINWYQQKPGQPPKLLIYAASNKDTGVPARFSGSGSGTDFTLTINPVEAEDTANYYCHQSNEDPYLFGQGTKLEIK
969 | 0.000259 | 267000 |  |  |  | hu1H9v3 (antibody, V domains shown, Humanized 1H9) VH: EVQLVESGGGLVKPGGSLRLSCAASGFTFSGYPMSWVRQAPGKGLEWVSTISTGARHTYYPDSVKGRFTISRDNAKNSLYLQMNSLRAEDTAVYYCARHEGLRRGKYHSIMDYWGQGTLVTVSS VL: DIVLTQSPASLAVSPGQRATITCRASESVDYDGDSFINWYQQKPGQPPKLLIYAASNKDTGVPARFSGSGSGTDFTLTINPVEAEDTANYYCHQSNEDPYVFGQGTKLEIK
